Source: paper PMC9352680, “A comprehensive thermodynamic model for RNA binding by the Saccharomyces cerevisiae Pumilio protein PUF4”

T1: PUF4 RNA-binding domain (Saccharomyces cerevisiae, UniProt P25339 537-888)
T1 sequence: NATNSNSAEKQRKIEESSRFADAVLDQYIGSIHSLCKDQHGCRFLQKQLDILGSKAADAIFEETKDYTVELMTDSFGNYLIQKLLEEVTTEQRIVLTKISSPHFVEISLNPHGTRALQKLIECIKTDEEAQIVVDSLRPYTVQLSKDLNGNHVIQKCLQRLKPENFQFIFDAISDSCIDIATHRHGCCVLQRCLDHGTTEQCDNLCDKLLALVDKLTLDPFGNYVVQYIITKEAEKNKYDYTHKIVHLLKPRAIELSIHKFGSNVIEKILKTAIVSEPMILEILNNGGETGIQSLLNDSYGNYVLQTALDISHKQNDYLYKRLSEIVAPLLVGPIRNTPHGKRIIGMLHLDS


Target: T1, PUF4 RNA-binding domain
Test: Mg; RNA-MaP; 20 mM Na-HEPES pH 7.4, 30 mM KOAc, 0.75 mM MgCl2, 0.1% Tween-20, 5% glycerol, 0.1 mg/mL BSA, 2 mM DTT; 25 C; 0.0125-409.6 nM protein
Conditions: tags: N-His6-TEV cleaved; C-SNAP kept, Cy3B-labelled; label: tethered on chip by stalled RNA polymerase

| Binder | Kd [nM] |
| --- | --- |
| UCUCUUUCUAUAUUAUUACGUCUCUU (ssRNA) [Id_ii_S1_P5E.3_K5.2_C5.2_[C-2T]_[T-1C]_H5.2_A5.1_F5.1_T5.2_[T11C]_[A12G]] | 494 |
| UCUCUUUUUAUAUUAUUAACUCUCUU (ssRNA) [Id_ii_S1_P5E.3_K5.2_C5.2_[C-2T]_H5.2_A5.1_F5.1_T5.2_[T11A]_[A12C]] | 524 |
| UCUCUUGUUAUAUUAUUACGUCUCUU (ssRNA) [Id_ii_S1_P5E.3_K5.2_C5.2_[C-2G]_H5.2_A5.1_F5.1_T5.2_[T11C]_[A12G]] | 22 |
| UCUCUUGCUAUAUUAUUACGUCUCUU (ssRNA) [Id_ii_S1_P5E.3_K5.2_C5.2_[C-2G]_[T-1C]_H5.2_A5.1_F5.1_T5.2_[T11C]_[A12G]] | 549 |
| UCUCUUUAUAUAUUAUUACGUCUCUU (ssRNA) [Id_ii_S1_P5E.3_K5.2_C5.2_[C-2T]_[T-1A]_H5.2_A5.1_F5.1_T5.2_[T11C]_[A12G]] | 18.1 |
| UCUCUUCUUGUAUUAUUAAAUCUCUU (ssRNA) [Id_ii_S1_P5E.2_K5.1_C5.2_H5.1_A5.1_F5.1_T5.2_[T11A]] | 9.5 |
| UCUCUUUAUAUAUUAUUACUUCUCUU (ssRNA) [Id_ii_S1_P5E.3_K5.2_C5.2_[C-2T]_[T-1A]_H5.2_A5.1_F5.1_T5.2_[T11C]_[A12T]] | 13.3 |
| UCUCUUUGUAUGAUAUCUCUU (ssRNA) [Ib_S1_P4E.1_K4.1_C4.1_H4.1_A4.1_[A6G]_[T7A]_F4.1_T4.1] | 4.57 |
| UCUCUUUAUAUAUUAUUACCUCUCUU (ssRNA) [Id_ii_S1_P5E.3_K5.2_C5.2_[C-2T]_[T-1A]_H5.2_A5.1_F5.1_T5.2_[T11C]_[A12C]] | 14.1 |
| UCUCUUUCUAUAUUAUUAACUCUCUU (ssRNA) [Id_ii_S1_P5E.3_K5.2_C5.2_[C-2T]_[T-1C]_H5.2_A5.1_F5.1_T5.2_[T11A]_[A12C]] | 581 |
| UCUCUUGCUAUAUUAUUACAUCUCUU (ssRNA) [Id_ii_S1_P5E.3_K5.2_C5.2_[C-2G]_[T-1C]_H5.2_A5.1_F5.1_T5.2_[T11C]] | 509 |
| UCUCUUUGUAUAUUAUUAAAUCUCUU (ssRNA) [Id_ii_S1_P5E.3_K5.2_C5.2_[C-2T]_[T-1G]_H5.2_A5.1_F5.1_T5.2_[T11A]] | 0.467 |
| UCUCUUUGUAUAUUAUUAGCUCUCUU (ssRNA) [Id_ii_S1_P5E.3_K5.2_C5.2_[C-2T]_[T-1G]_H5.2_A5.1_F5.1_T5.2_[T11G]_[A12C]] | 0.703 |
| UCUCUUUGUAUCGUAUCUCUU (ssRNA) [Ic_S1_P4E.1_K4.1_C4.1_H4.1_A4.1_[A6C]_[T7G]_F4.1_T4.1] | 12.3 |
| UCUCUUGUUAUAUUAUUAAAUCUCUU (ssRNA) [Id_ii_S1_P5E.3_K5.2_C5.2_[C-2G]_H5.2_A5.1_F5.1_T5.2_[T11A]] | 17.7 |
| UCUCUUCUUGUAUUAUUAGUUCUCUU (ssRNA) [Id_ii_S1_P5E.2_K5.1_C5.2_H5.1_A5.1_F5.1_T5.2_[T11G]_[A12T]] | 3.87 |

| Binder | Kd [nM] |
| --- | --- |
| UCUCUUUAUAUAUUAUUAAAUCUCUU (ssRNA) [Id_ii_S1_P5E.3_K5.2_C5.2_[C-2T]_[T-1A]_H5.2_A5.1_F5.1_T5.2_[T11A]] | 25.4 |
| UCUCUUGUUAUAUUAUUACUUCUCUU (ssRNA) [Id_ii_S1_P5E.3_K5.2_C5.2_[C-2G]_H5.2_A5.1_F5.1_T5.2_[T11C]_[A12T]] | 13.4 |
| UCUCUUUGUAUUAUGAUCUCUU (ssRNA) [Ia_S1_P5E.1_K5.1_C5.1_H5.1_A5.1_F5.1_[T9G]_T5.1] | 15.3 |
| UCUCUUGCUAUAUUAUUAAUUCUCUU (ssRNA) [Id_ii_S1_P5E.3_K5.2_C5.2_[C-2G]_[T-1C]_H5.2_A5.1_F5.1_T5.2_[T11A]_[A12T]] | 343 |
| UCUCUUUUUAUAUUAUUAUUUCUCUU (ssRNA) [Id_ii_S1_P5E.3_K5.2_C5.2_[C-2T]_H5.2_A5.1_F5.1_T5.2_[A12T]] | 181 |
| UCUCUUGUUAUAUUAUUACCUCUCUU (ssRNA) [Id_ii_S1_P5E.3_K5.2_C5.2_[C-2G]_H5.2_A5.1_F5.1_T5.2_[T11C]_[A12C]] | 9 |
| UCUCUUUUUAUAUUAUUACGUCUCUU (ssRNA) [Id_ii_S1_P5E.3_K5.2_C5.2_[C-2T]_H5.2_A5.1_F5.1_T5.2_[T11C]_[A12G]] | 434 |
| UCUCUUUCUAUAUUAUUAUUUCUCUU (ssRNA) [Id_ii_S1_P5E.3_K5.2_C5.2_[C-2T]_[T-1C]_H5.2_A5.1_F5.1_T5.2_[A12T]] | 402 |
| UCUCUUACUAUAUUAUUACUUCUCUU (ssRNA) [Id_ii_S1_P5E.3_K5.2_C5.2_[C-2A]_[T-1C]_H5.2_A5.1_F5.1_T5.2_[T11C]_[A12T]] | 486 |
| UCUCUUUGUAUAUUAUUAACUCUCUU (ssRNA) [Id_ii_S1_P5E.3_K5.2_C5.2_[C-2T]_[T-1G]_H5.2_A5.1_F5.1_T5.2_[T11A]_[A12C]] | 0.55 |
| UCUCUUACUAUAUUAUUACCUCUCUU (ssRNA) [Id_ii_S1_P5E.3_K5.2_C5.2_[C-2A]_[T-1C]_H5.2_A5.1_F5.1_T5.2_[T11C]_[A12C]] | 520 |
| UCUCUUUCUAUAUUAUUACUUCUCUU (ssRNA) [Id_ii_S1_P5E.3_K5.2_C5.2_[C-2T]_[T-1C]_H5.2_A5.1_F5.1_T5.2_[T11C]_[A12T]] | 390 |
| UCUCUUUUUAUAUUAUUAGCUCUCUU (ssRNA) [Id_ii_S1_P5E.3_K5.2_C5.2_[C-2T]_H5.2_A5.1_F5.1_T5.2_[T11G]_[A12C]] | 160 |
| UCUCUUUCUAUAUUAUUAAUUCUCUU (ssRNA) [Id_ii_S1_P5E.3_K5.2_C5.2_[C-2T]_[T-1C]_H5.2_A5.1_F5.1_T5.2_[T11A]_[A12T]] | 615 |
| UCUCUUUCUAUAUUAUUAAAUCUCUU (ssRNA) [Id_ii_S1_P5E.3_K5.2_C5.2_[C-2T]_[T-1C]_H5.2_A5.1_F5.1_T5.2_[T11A]] | 557 |
